This is an account of results in article PMC8298264, “Function of cofactor Akirin2 in the regulation of gene expression in model human neutrophil-like HL60 cells” (Bioscience Reports, 2021).

The experiment deals with human HL60 cells. Kind of experiment: SWATH-MS proteomics, differential protein representation, akirin2 KO vs WT HL60 cells. It is filed as cell-based. The conditions noted are these: akirin2 KO vs WT HL60 cells. The method in brief: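 Differential representation compares akirin2 KO with WT HL60 across three biological replicates, 5 µg digest each, acquired by data-independent SWATH on a 120-min gradient. Library built from combined IDA runs searched with Paragon; proteins accepted at 1% FDR, with total-area-sum normalization.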

Where [1] appears, read: SWATH-MS, under-represented in KO.
Setting [2] is: sheet "Under-represented in KO".

B1: sp¦P33176¦KINH_HUMAN (protein, UniProt P33176 2-963, looked up)
Kinesin-1 heavy chain: ADLAECNIKVMCRFRPLNESEVNRGDKYIAKFQGEDTVVIASKPYAFDRVFQSSTSQEQVYNDCAKKIVKDVLEGYNGTIFAYGQTSSGKTHTMEGKLHDPEGMGIIPRIVQDIFNYIYSMDENLEFHIKVSYFEIYLDKIRDLLDVSKTNLSVHEDKNRVPYVKGCTERFVCSPDEVMDTIDEGKSNRHVAVTNMNEHSSRSHSIFLINVKQENTQTEQKLSGKLYLVDLAGSEKVSKTGAEGAVLDEAKNINKSLSALGNVISALAEGSTYVPYRDSKMTRILQDSLGGNCRTTIVICCSPSSYNESETKSTLLFGQRAKTIKNTVCVNVELTAEQWKKKYEKEKEKNKILRNTIQWLENELNRWRNGETVPIDEQFDKEKANLEAFTVDKDITLTNDKPATAIGVIGNFTDAERRKCEEEIAKLYKQLDDKDEEINQQSQLVEKLKTQMLDQEELLASTRRDQDNMQAELNRLQAENDASKEEVKEVLQALEELAVNYDQKSQEVEDKTKEYELLSDELNQKSATLASIDAELQKLKEMTNHQKKRAAEMMASLLKDLAEIGIAVGNNDVKQPEGTGMIDEEFTVARLYISKMKSEVKTMVKRCKQLESTQTESNKKMEENEKELAACQLRISQHEAKIKSLTEYLQNVEQKKRQLEESVDALSEELVQLRAQEKVHEMEKEHLNKVQTANEVKQAVEQQIQSHRETHQKQISSLRDEVEAKAKLITDLQDQNQKMMLEQERLRVEHEKLKATDQEKSRKLHELTVMQDRREQARQDLKGLEETVAKELQTLHNLRKLFVQDLATRVKKSAEIDSDDTGGSAAQKQKISFLENNLEQLTKVHKQLVRDNADLRCELPKLEKRLRATAERVKALESALKEAKENASRDRKRYQQEVDRIKEAVRSKNMARRGHSAQIAKPIRPGQHPAASPTHPSAIRGGGAFVQNSQPVAVRGGGGKQV
On to B1, for which, under setting [1], the “Fold Change” value is 0.7087 and the “Log (Fold Change)” value is reported as -0.1495.

B2: sp¦Q9UFN0¦NPS3A_HUMAN (protein, UniProt Q9UFN0 1-247, looked up)
Protein NipSnap homolog 3A: MLVLRSALTRALASRTLAPQMCSSFATGPRQYDGIFYEFRSYYLKPSKMNEFLENFEKNAHLRTAHSELVGYWSVEFGGRMNTVFHIWKYDNFAHRTEVRKALAKDKEWQEQFLIPNLALIDKQESEITYLVPWCKLEKPPKEGVYELATFQMKPGGPALWGDAFKRAVHAHVNLGYTKLVGVFHTEYGALNRVHVLWWNESADSRAAGRHKSHEDPRVVAAVRESVNYLVSQQNMLLIPTSFSPLK
As to B2, under setting [1], the “Fold Change” value is 0.7109 and the “Log (Fold Change)” value is recorded as -0.1482.

B3: sp¦Q96HE7¦ERO1A_HUMAN (protein, UniProt Q96HE7 24-468, looked up)
ERO1-like protein alpha: EEQPPETAAQRCFCQVSGYLDDCTCDVETIDRFNNYRLFPRLQKLLESDYFRYYKVNLKRPCPFWNDISQCGRRDCAVKPCQSDEVPDGIKSASYKYSEEANNLIEECEQAERLGAVDESLSEETQKAVLQWTKHDDSSDNFCEADDIQSPEAEYVDLLLNPERYTGYKGPDAWKIWNVIYEENCFKPQTIKRPLNPLASGQGTSEENTFYSWLEGLCVEKRAFYRLISGLHASINVHLSARYLLQETWLEKKWGHNITEFQQRFDGILTEGEGPRRLKNLYFLYLIELRALSKVLPFFERPDFQLFTGNKIQDEENKMLLLEILHEIKSFPLHFDENSFFAGDKKEAHKLKEDFRLHFRNISRIMDCVGCFKCRLWGKLQTQGLGTALKILFSEKLIANMPESGPSYEFHLTRQEIVSLFNAFGRISTSVKELENFRNLLQNIH
For B3, under setting [1], the “Fold Change” value is 0.7045 and the “Log (Fold Change)” value is -0.1521.

B4: sp¦Q92990¦GLMN_HUMAN (protein, UniProt Q92990 2-594, looked up)
Glomulin: AVEELQSIIKRCQILEEQDFKEEDFGLFQLAGQRCIEEGHTDQLLEIIQNEKNKVIIKNMGWNLVGPVVRCLLCKDKEDSKRKVYFLIFDLLVKLCNPKELLLGLLELIEEPSGKQISQSILLLLQPLQTVIQKLHNKAYSIGLALSTLWNQLSLLPVPYSKEQIQMDDYGLCQCCKALIEFTKPFVEEVIDNKENSLENEKLKDELLKFCFKSLKCPLLTAQFFEQSEEGGNDPFRYFASEIIGFLSAIGHPFPKMIFNHGRKKRTWNYLEFEEEENKQLADSMASLAYLVFVQGIHIDQLPMVLSPLYLLQFNMGHIEVFLQRTEESVISKGLELLENSLLRIEDNSLLYQYLEIKSFLTVPQGLVKVMTLCPIETLRKKSLAMLQLYINKLDSQGKYTLFRCLLNTSNHSGVEAFIIQNIKNQIDMSLKRTRNNKWFTGPQLISLLDLVLFLPEGAETDLLQNSDRIMASLNLLRYLVIKDNENDNQTGLWTELGNIENNFLKPLHIGLNMSKAHYEAEIKNSQEAQKSKDLCSITVSGEEIPNMPPEMQLKVLHSALFTFDLIESVLARVEELIEIKTKSTSEENIGIK
Take B4: under setting [2], the “Fold Change” value is recorded as 0.3264 and the “Log (Fold Change)” value is reported as -0.4863.

B5: sp¦Q14C86¦GAPD1_HUMAN (protein, UniProt Q14C86 1-1478, looked up)
GTPase-activating protein and …: MVKLDIHTLAHHLKQERLYVNSEKQLIQRLNADVLKTAEKLYRTAWIAKQQRINLDRLIITSAEASPAECCQHAKILEDTQFVDGYKQLGFQETAYGEFLSRLRENPRLIASSLVAGEKLNQENTQSVIYTVFTSLYGNCIMQEDESYLLQVLRYLIEFELKESDNPRRLLRRGTCAFSILFKLFSEGLFSAKLFLTATLHEPIMQLLVEDEDHLETDPNKLIERFSPSQQEKLFGEKGSDRFRQKVQEMVESNEAKLVALVNKFIGYLKQNTYCFPHSLRWIVSQMYKTLSCVDRLEVGEVRAMCTDLLLACFICPAVVNPEQYGIISDAPINEVARFNLMQVGRLLQQLAMTGSEEGDPRTKSSLGKFDKSCVAAFLDVVIGGRAVETPPLSSVNLLEGLSRTVVYITYSQLITLVNFMKSVMSGDQLREDRMALDNLLANLPPAKPGKSSSLEMTPYNTPQLSPATTPANKKNRLPIATRSRSRTNMLMDLHMDHEGSSQETIQEVQPEEVLVISLGTGPQLTPGMMSENEVLNMQLSDGGQGDVPVDENKLHGKPDKTLRFSLCSDNLEGISEGPSNRSNSVSSLDLEGESVSELGAGPSGSNGVEALQLLEHEQATTQDNLDDKLRKFEIRDMMGLTDDRDISETVSETWSTDVLGSDFDPNIDEDRLQEIAGAAAENMLGSLLCLPGSGSVLLDPCTGSTISETTSEAWSVEVLPSDSEAPDLKQEERLQELESCSGLGSTSDDTDVREVSSRPSTPGLSVVSGISATSEDIPNKIEDLRSECSSDFGGKDSVTSPDMDEITHGAHQLTSPPSQSESLLAMFDPLSSHEGASAVVRPKVHYARPSHPPPDPPILEGAVGGNEARLPNFGSHVLTPAEMEAFKQRHSYPERLVRSRSSDIVSSVRRPMSDPSWNRRPGNEERELPPAAAIGATSLVAAPHSSSSSPSKDSSRGETEERKDSDDEKSDRNRPWWRKRFVSAMPKAPIPFRKKEKQEKDKDDLGPDRFSTLTDDPSPRLSAQAQVAEDILDKYRNAIKRTSPSDGAMANYESTGDNHDRDLSSKLLYHSDKEVMGDGESAHDSPRDEALQNISADDLPDSASQAAHPQDSAFSYRDAKKKLRLALCSADSVAFPVLTHSTRNGLPDHTDPEDNEIVCFLKVQIAEAINLQDKNLMAQLQETMRCVCRFDNRTCRKLLASIAEDYRKRAPYIAYLTRCRQGLQTTQAHLERLLQRVLRDKEVANRYFTTVCVRLLLESKEKKIREFIQDFQKLTAADDKTAQVEDFLQFLYGAMAQDVIWQNASEEQLQDAQLAIERSVMNRIFKLAFYPNQDGDILRDQVLHEHIQRLSKVVTANHRALQIPEVYLREAPWPSAQSEIRTISAYKTPRDKVQCILRMCSTIMNLLSLANEDSVPGADDFVPVLVFVLIKANPPCLLSTVQYISSFYASCLSGEESYWWMQFTAAVEFIKTIDDRK
With B5, under setting [1], the “Fold Change” value turned out to be 0.7165 and the “Log (Fold Change)” value was -0.1448.

B6: sp¦O75533¦SF3B1_HUMAN (protein, UniProt O75533 1-1304, looked up)
Splicing factor 3B subunit 1: MAKIAKTHEDIEAQIREIQGKKAALDEAQGVGLDSTGYYDQEIYGGSDSRFAGYVTSIAATELEDDDDDYSSSTSLLGQKKPGYHAPVALLNDIPQSTEQYDPFAEHRPPKIADREDEYKKHRRTMIISPERLDPFADGGKTPDPKMNARTYMDVMREQHLTKEEREIRQQLAEKAKAGELKVVNGAAASQPPSKRKRRWDQTADQTPGATPKKLSSWDQAETPGHTPSLRWDETPGRAKGSETPGATPGSKIWDPTPSHTPAGAATPGRGDTPGHATPGHGGATSSARKNRWDETPKTERDTPGHGSGWAETPRTDRGGDSIGETPTPGASKRKSRWDETPASQMGGSTPVLTPGKTPIGTPAMNMATPTPGHIMSMTPEQLQAWRWEREIDERNRPLSDEELDAMFPEGYKVLPPPAGYVPIRTPARKLTATPTPLGGMTGFHMQTEDRTMKSVNDQPSGNLPFLKPDDIQYFDKLLVDVDESTLSPEEQKERKIMKLLLKIKNGTPPMRKAALRQITDKAREFGAGPLFNQILPLLMSPTLEDQERHLLVKVIDRILYKLDDLVRPYVHKILVVIEPLLIDEDYYARVEGREIISNLAKAAGLATMISTMRPDIDNMDEYVRNTTARAFAVVASALGIPSLLPFLKAVCKSKKSWQARHTGIKIVQQIAILMGCAILPHLRSLVEIIEHGLVDEQQKVRTISALAIAALAEAATPYGIESFDSVLKPLWKGIRQHRGKGLAAFLKAIGYLIPLMDAEYANYYTREVMLILIREFQSPDEEMKKIVLKVVKQCCGTDGVEANYIKTEILPPFFKHFWQHRMALDRRNYRQLVDTTVELANKVGAAEIISRIVDDLKDEAEQYRKMVMETIEKIMGNLGAADIDHKLEEQLIDGILYAFQEQTTEDSVMLNGFGTVVNALGKRVKPYLPQICGTVLWRLNNKSAKVRQQAADLISRTAVVMKTCQEEKLMGHLGVVLYEYLGEEYPEVLGSILGALKAIVNVIGMHKMTPPIKDLLPRLTPILKNRHEKVQENCIDLVGRIADRGAEYVSAREWMRICFELLELLKAHKKAIRRATVNTFGYIAKAIGPHDVLATLLNNLKVQERQNRVCTTVAIAIVAETCSPFTVLPALMNEYRVPELNVQNGVLKSLSFLFEYIGEMGKDYIYAVTPLLEDALMDRDLVHRQTASAVVQHMSLGVYGFGCEDSLNHLLNYVWPNVFETSPHVIQAVMGALEGLRVAIGPCRMLQYCLQGLFHPARKVRDVYWKIYNSIYIGSQDALIAHYPRIYNDDKNTYIRYELDYIL
Turning to B6, under setting [1], the “Fold Change” value is 0.7121 and the “Log (Fold Change)” value is given as -0.1475.
